The Human Domainome abundance scans (Beltran et al. 2025)
± gives the uncertainty stated by the source.

B1: Mineralocorticoid receptor, residues 600 to 675; numbered along this chain, P08235 (parent)
chain: SKICLVCGDEASGCHYGVVTCGSCKVFFKRAVEGQHNYLCAGRNDCIIDKIRRKNCPACRLQKCLQAGMNLGARKS

Variants of: B1
Experiment: abundance fitness (aPCA) (normalised: wild type 0, dead -1); higher = more abundant; growth selection in yeast, the domain comes from the species named
Settings: Homo sapiens

Variant	abundance fitness
SKICLVCGDEASGCHYGVVTCGSCKVFFKRAVEGQHNYLCAGRNDCIIDKIRRKNCPACRLQKCLQAGMNLGARQS [K75Q]	0.05 ± 0.062
SKICLVCGDEASGCHYGVVTCGSCKVFFKRAVEGQHNYLCAGRNDCIIDKIRRKNCPACRLQKCLQAGMNLGARGS [K75G]	-0.024 ± 0.039
SKICLVCGDEASGCHYGVVTCGSCKVFFKRAVEGQHNYLCAGRNDCIIDKIRRKNCPACRLQKCLQAGMNLGARNS [K75N]	-0.092 ± 0.08
SKICLVCGDEASGCHYGVVTCGSCKVFFKRAVEGQHNYLCAGRNDCIIDKIRRKNCPACRLQKCLQAGMNLGARCS [K75C]	-0.038 ± 0.071
SKICLVCGDEASGCHYGVVTCGSCKVFFKRAVEGQHNYLCAGRNDCIIDKIRRKNCPACRLQKCLQAGMNLGARSS [K75S]	0.065 ± 0.047
SKICLVCGDEASGCHYGVVTCGSCKVFFKRAVEGQHNYLCAGRNDCIIDKIRRKNCPACRLQKCLQAGMNLGARDS [K75D]	-0.057 ± 0.085
SKICLVCGDEASGCHYGVVTCGSCKVFFKRAVEGQHNYLCAGRNDCIIDKIRRKNCPACRLQKCLQAGMNLGARTS [K75T]	0.014 ± 0.07
SKICLVCGDEASGCHYGVVTCGSCKVFFKRAVEGQHNYLCAGRNDCIIDKIRRKNCPACRLQKCLQAGMNLGARES [K75E]	0.055 ± 0.049
SKICLVCGDEASGCHYGVVTCGSCKVFFKRAVEGQHNYLCAGRNDCIIDKIRRKNCPACRLQKCLQAGMNLGARMS [K75M]	-0.025 ± 0.064
SKICLVCGDEASGCHYGVVTCGSCKVFFKRAVEGQHNYLCAGRNDCIIDKIRRKNCPACRLQKCLQAGMNLGARFS [K75F]	-0.167 ± 0.16
SKICLVCGDEASGCHYGVVTCGSCKVFFKRAVEGQHNYLCAGRNDCIIDKIRRKNCPACRLQKCLQAGMNLGARYS [K75Y]	-0.051 ± 0.073
SKICLVCGDEASGCHYGVVTCGSCKVFFKRAVEGQHNYLCAGRNDCIIDKIRRKNCPACRLQKCLQAGMNLGARLS [K75L]	-0.056 ± 0.05
SKICLVCGDEASGCHYGVVTCGSCKVFFKRAVEGQHNYLCAGRNDCIIDKIRRKNCPACRLQKCLQAGMNLGARPS [K75P]	0.011 ± 0.062
SKICLVCGDEASGCHYGVVTCGSCKVFFKRAVEGQHNYLCAGRNDCIIDKIRRKNCPACRLQKCLQAGMNLGARHS [K75H]	0.077 ± 0.093
SKICLVCGDEASGCHYGVVTCGSCKVFFKRAVEGQHNYLCAGRNDCIIDKIRRKNCPACRLQKCLQAGMNLGARVS [K75V]	0.034 ± 0.049
SKICLVCGDEASGCHYGVVTCGSCKVFFKRAVEGQHNYLCAGRNDCIIDKIRRKNCPACRLQKCLQAGMNLGARIS [K75I]	-0.213 ± 0.11
SKICLVCGDEASGCHYGVVTCGSCKVFFKRAVEGQHNYLCAGRNDCIIDKIRRKNCPACRLQKCLQAGMNLGARKY [S76Y]	-0.075 ± 0.079
SKICLVCGDEASGCHYGVVTCGSCKVFFKRAVEGQHNYLCAGRNDCIIDKIRRKNCPACRLQKCLQAGMNLGARKW [S76W]	0.122 ± 0.098
SKICLVCGDEASGCHYGVVTCGSCKVFFKRAVEGQHNYLCAGRNDCIIDKIRRKNCPACRLQKCLQAGMNLGARKN [S76N]	-0.071 ± 0.094
SKICLVCGDEASGCHYGVVTCGSCKVFFKRAVEGQHNYLCAGRNDCIIDKIRRKNCPACRLQKCLQAGMNLGARKC [S76C]	-0.128 ± 0.063

Variant	abundance fitness
SKICLVCGDEASGCHYGVVTCGSCKVFFKRAVEGQHNYLCAGRNDCIIDKIRRKNCPACRLQKCLQAGMNLGARKQ [S76Q]	-0.096 ± 0.21
SKICLVCGDEASGCHYGVVTCGSCKVFFKRAVEGQHNYLCAGRNDCIIDKIRRKNCPACRLQKCLQAGMNLGARKD [S76D]	-0.031 ± 0.12
SKICLVCGDEASGCHYGVVTCGSCKVFFKRAVEGQHNYLCAGRNDCIIDKIRRKNCPACRLQKCLQAGMNLGARKT [S76T]	0.01 ± 0.066
SKICLVCGDEASGCHYGVVTCGSCKVFFKRAVEGQHNYLCAGRNDCIIDKIRRKNCPACRLQKCLQAGMNLGARKP [S76P]	0.007 ± 0.06
SKICLVCGDEASGCHYGVVTCGSCKVFFKRAVEGQHNYLCAGRNDCIIDKIRRKNCPACRLQKCLQAGMNLGARKE [S76E]	-0.044 ± 0.095
SKICLVCGDEASGCHYGVVTCGSCKVFFKRAVEGQHNYLCAGRNDCIIDKIRRKNCPACRLQKCLQAGMNLGARKH [S76H]	-0.051 ± 0.1
SKICLVCGDEASGCHYGVVTCGSCKVFFKRAVEGQHNYLCAGRNDCIIDKIRRKNCPACRLQKCLQAGMNLGARKI [S76I]	-0.198 ± 0.13
SKICLVCGDEASGCHYGVVTCGSCKVFFKRAVEGQHNYLCAGRNDCIIDKIRRKNCPACRLQKCLQAGMNLGARKG [S76G]	-0.076 ± 0.047
SKICLVCGDEASGCHYGVVTCGSCKVFFKRAVEGQHNYLCAGRNDCIIDKIRRKNCPACRLQKCLQAGMNLGARKK [S76K]	-0.654 ± 0.5
SKICLVCGDEASGCHYGVVTCGSCKVFFKRAVEGQHNYLCAGRNDCIIDKIRRKNCPACRLQKCLQAGMNLGARKV [S76V]	-0.173 ± 0.071
SKICLVCGDEASGCHYGVVTCGSCKVFFKRAVEGQHNYLCAGRNDCIIDKIRRKNCPACRLQKCLQAGMNLGARKF [S76F]	-0.119 ± 0.06
SKICLVCGDEASGCHYGVVTCGSCKVFFKRAVEGQHNYLCAGRNDCIIDKIRRKNCPACRLQKCLQAGMNLGARKM [S76M]	-0.084 ± 0.1
SKICLVCGDEASGCHYGVVTCGSCKVFFKRAVEGQHNYLCAGRNDCIIDKIRRKNCPACRLQKCLQAGMNLGARKR [S76R]	-0.116 ± 0.057
SKICLVCGDEASGCHYGVVTCGSCKVFFKRAVEGQHNYLCAGRNDCIIDKIRRKNCPACRLQKCLQAGMNLGARKL [S76L]	-0.012 ± 0.042
SKICLVCGDEASGCHYGVVTCGSCKVFFKRAVEGQHNYLCAGRNDCIIDKIRRKNCPACRLQKCLQAGMNLGASKS [R74S]	-0.001 ± 0.04
SKICLVCGDEASGCHYGVVTCGSCKVFFKRAVEGQHNYLCAGRNDCIIDKIRRKNCPACRLQKCLQAGMNLGAVKS [R74V]	0.026 ± 0.038
SKICLVCGDEASGCHYGVVTCGSCKVFFKRAVEGQHNYLCAGRNDCIIDKIRRKNCPACRLQKCLQAGMNLGATKS [R74T]	0.138 ± 0.063
SKICLVCGDEASGCHYGVVTCGSCKVFFKRAVEGQHNYLCAGRNDCIIDKIRRKNCPACRLQKCLQAGMNLGAYKS [R74Y]	-0.031 ± 0.069
SKICLVCGDEASGCHYGVVTCGSCKVFFKRAVEGQHNYLCAGRNDCIIDKIRRKNCPACRLQKCLQAGMNLGAWKS [R74W]	0 ± 0.046
